Assay results from the nanobody polyreactivity screen of Harvey et al. (2022).

Assay: yeast display, Sf9 membrane polyspecificity reagent, FACS + sequencing; frameworks hold sequencing errors
In short: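 Sorting gates, low and high (top ~1%), were placed on anti-HA fluorescence to track expression and on streptavidin fluorescence to track reagent binding. A clone's polyreactivity label is taken from the gate it came out of. The reagent was 10% biotinylated, detergent-solubilized Sf9 membrane, applied for 1 hour at 4 °C to galactose-induced yeast display cells.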

Row | Sequence | polyreactivity (PSR sort gate)
1 | QVQLVESGGGLVQAGGSLRLSCAASGLTFDWYTMGWYRQAPGKERELVATINSGGSTDYADSVKGRFTISRDNAKNTVYLQMNSLKPEDTAVYYCNAEYGYSGVGDDYWGQGTQVTVSS | low polyreactivity
2 | QVQLVESGGGLVQAGGSLRLSCAASGLTFDYYAMGWSRQAPGKERELVAAITSSGGRTYYADSVKGRFTISRDNAKNTVYLQMNSLKPEDTAVYYCAKRDSYYNGVGYWGQGTQVTVSS | low polyreactivity
3 | QVQLVESGGGLVQAGGSLRLSCAASGLTFDYYAMGWYRQAPGKERELVAAIDWSGGSTYYADSVKGRFTISRDNAKNTVYLQMNSLKPEDTAVYYCATESDDSGMDYWGQGTQVTVSS | low polyreactivity
4 | QVQLVESGGGLVQAGGSLRLSCAASGLTFDYYDRGGYRQAPGKERELVASITWRGSSTYYADSVKGRFTISRDNAKNTVYLQMNSLKPEDTAVYYCAARPQHFDLDLAYSGFDYWGQGTQVTVSS | high polyreactivity
5 | QVQLVESGGGLVQAGGSLRLSCAASGLTFDYYVMGWYRQAPGKERELVATISWSGDITYYADSVKGRFTISRDNAKNTVYLQMNSLKPEDTAVYYCAADYLDSTYGYVYGWDDYWGQGTQVTVSS | low polyreactivity
6 | QVQLVESGGGLVQAGGSLRLSCAASGLTFEKYSMGWYRQAPGKERELVAAISQDGGSTYYADSVKGRFTISRDNAKNTVYLQMNSVKPEDTAVYYCAAEDPDSWLPWDLFDYWGQGTQVTVSS | low polyreactivity
7 | QVQLVESGGGLVQAGGSLRLSCAASGLTFERYAMGWNREAPGKERELVAAISGSGGSTYYADSVKGRFTISRDNAKNTVYLQMNSLTPEDTAVYYCAAYPTVWYDYWGQGTQVTVSS | high polyreactivity
8 | QVQLVESGGGLVQAGGSLRLSCAASGLTFFPNAMGWYRQAPGKERELVAAISNNGGRTYYADSVKGRFTISRDNAKNTVYLQMNSLKPEDTAVYYCAKYLSPGERHSYDYWGQGTQVTVSS | high polyreactivity
9 | QVQLVESGGGLVQAGGSLRLSCAASGLTFGAYAMGWYRQAPGKEREFVAAITYSGGSTNYADSVKGRFTISRDNAKNTVYLQMNSLKPEDTAVYSCNAGYYSPWAFYPYDYWGQGTQVTVSS | high polyreactivity
10 | QVQLVESGGGLVQAGGSLRLSCAASGLTFGGNAMGWYRQAPGKERELVAGISSSGNTNYADSVKGRFTISRDNAKNTVYLQMNSLKPEDTAVYYCAADENITYPVYDMYYWGQGTQVTVSS | low polyreactivity
11 | QVQLVESGGGLVQAGGSLRLSCAASGLTFGGYTMGWYRQAPGKERELVAAITSGGSTYYADSVKGRFTISRDNAKNTVYLQMNSLKPEDTAVYYCAARVRGWPVSKFGYWGQGTQVTVSS | high polyreactivity
12 | QVQLVESGGGLVQAGGSLRLSCAASGLTFGHYDMGWYRQAPGKERELVAAITWSGGSTYYADSVKGRFTISRDNAKNTVYLQMNSLKPEDTAVYYCNADQPILYYSYRGVGYDYWGQGTQVTVSS | high polyreactivity
13 | QVQLVESGGGLVQAGGSLRLSCAASGLTFGNYAMGWYRQTPGKERELVAAISKRGGTTYYADSVKGRFTISRDTAKNTVYLQMNSLKPEDTAVYYCSARDYSHPTDDNYWGPGTQVTVSS | high polyreactivity
14 | QVQLVESGGGLVQAGGSLRLSCAASGLTFGPNALGWYRQAPGQERELVAAITTGGGTNYADSVKGRFTISRDNAKNTVYLQMNSLKPEDTAVYYCAADALDSPDGYDYCGQGTQVTVSS | low polyreactivity
15 | QVQLVESGGGLVQAGGSLRLSCAASGLTFGRNAMGWYRQAPGKERELVAAISRSGGRTSYADSVKGRFTISRDNAKNTVYLHMNSLKPEDTAVYYCAARSPIYRTTYYYWGQGTQVTVSS | high polyreactivity
16 | QVQLVESGGGLVQAGGSLRLSCAASGLTFGRNAMGWYRQAPGKERELVAAITFNGGSTYYADSVKGRFTISRDNAKNTVYIQMNSLKPEDTAVYYCAAPYYVYWTYPYRVLSYYYWGQGTQVTVSS | high polyreactivity

Row | Sequence | polyreactivity (PSR sort gate)
17 | QVQLVESGGGLVQAGGSLRLSCAASGLTFGRNAMGWYRQSPGKERELVAAITFNGGSTYYADSVKGRFTISRDNAKNTVYFQMNSLKPEDTAVYYCAARLWRRSRFDYWGLGTQVTVSS | high polyreactivity
18 | QVQLVESGGGLVQAGGSLRLSCAASGLTFGRNVMGWYRQAPGKERELVAAISWRGDSTYYADSVKGRFTISRDNAKNTGYLQMNSLKPEDTAVYYCAVRYYRGSVASGSDYWGQGTQVTVSS | high polyreactivity
19 | QVQLVESGGGLVQAGGSLRLSCAASGLTFGRYAMGWYRQAPGKERELVAAITRSGGRTYYADSVKGRFTISRDNAKNTVYLQMNSLKPEDTAVYYCNKLSHLGAPGDPDDYWGQGTQVTVSS | high polyreactivity
20 | QVQLVESGGGLVQAGGSLRLSCAASGLTFGTNAMGWYRQAPGKERELVAAISTSSGSTYYADSVKGRFTISRDNAKKTVYLQMNSLKQEDTAVYYCAAVTVTKLSYYRYYYWGQGTQVTVSS | low polyreactivity
21 | QVQLVESGGGLVQAGGSLRLSCAASGLTFGTNSMGWYRQAPGKEMELVAAINRGGGSTYYADSVKGRVTISRDNAKNTVYLQMNSLKPEDTAVYYCAKSYSGSRTSDYWGQGTQVTVSS | high polyreactivity
22 | QVQLVESGGGLVQAGGSLRLSCAASGLTFGTYAMGWYRQAPGKERELVAAISTSGVRTYYADSVKGRFTISRDNAKNTVYLQMNSLKPEDTAVYYCAARYNRAYSRDYWGQGTQVTVSS | high polyreactivity
23 | QVQLVESGGGLVQAGGSLRLSCAASGLTFGVYAMGWYRQAPGQERELVAASTWGDGSTYYADSVKGRFTISRDNAKNTGYLQMNSLKPEDTAVYYCNAVTRRHKYYYWGQGTQVTVSS | high polyreactivity
24 | QVQLVESGGGLVQAGGSLRLSCAASGLTFGYYAMGWYRQAPGKERELVAAITGGGGSTYYADSVKGRFTISRDNAKNTVYLQMNSLKPEDTAVYYCAKAVYFRRKGHWYQMEYWGQGTQVTVSS | low polyreactivity
25 | QVQLVESGGGLVQAGGSLRLSCAASGLTFGYYAMGWYRQAPGKVRELVAAISRGSSTYYADSVKGRFTISRDNAKNTVYLQMNSLIPEDTAVYYCNALFSYGYWRVRYIVTQYDYWGQGTQVTVSS | high polyreactivity
26 | QVQLVESGGGLVQAGGSLRLSCAASGLTFGYYAMVWYRQAPGKERELVAAINRSGNTNYADSVKGRFTISRDNAKNTVYLQMNCLKPEDTAVYYCAKRIWSILSPYKSSYGYDYWGQGSQVTVSS | low polyreactivity
27 | QVQLVESGGGLVQAGGSLRLSCAASGLTFHPYDMGWYRQAPGKERELVAAISSRGTSTYYADSVKGRFTISRDNAKNTVYLQMNSLKPEDTAVYYCAARHGPRAEAMYYWGQGSQVTVSS | high polyreactivity
28 | QVQLVESGGGLVQAGGSLRLSCAASGLTFHRYAMGWYRQAPGKERELVAANNYSGGRTYYADSVKGRFTISRDNAKNTVYLQMNSLKPEDTAVYYCAAPRASGYYWGQGTQVTVSS | high polyreactivity
29 | QVQLVESGGGLVQAGGSLRLSCAASGLTFHTNTMGWYRQAPGKERELVAAITWRDDSTYYADSVKGRFTISRDYAMNTVYLQMNSLKPEDTAVFYCAARGGAYLWYHYDYWGQGTQVTVSS | low polyreactivity
30 | QVQLVESGGGLVQAGGSLRLSCAASGLTFHYYGMGWYRQAPGKERELVAAISSGGSTYYADSVKGRFTISRDNAKNTVYLQMNSLKPEDTAVYYCAASLAYWYRGHYDYWGQGTQVTVSS | low polyreactivity
31 | QVQLVESGGGLVQAGGSLRLSCAASGLTFIKYAMGWYRQAPGKEREFVADISKRGGTTYYADSVKGRFTISRDNAKNTVYLQMNSLKPEDTAFYYCAARQYLNVYYRYDYWGQGTQVTVSS | high polyreactivity
